Seven molecules from US20210246166A1 (Bayer, published 2021) can be followed below.

Bridge positions count the residues as written; N and C are the ends. Square brackets hold non-standard residues; d marks the D form. Ends that are not written are not given here. NMeI = CC[C@H](C)[C@H](NC)C(=O)O; tBuAla = CC(C)(C)C[C@H](N)C(=O)O; Chg = N[C@H](C(=O)O)C1CCCCC1; NMeC = CN[C@@H](CS)C(=O)O; NMeA = CN[C@@H](C)C(=O)O; Orn = NCCC[C@H](N)C(=O)O; Abu = CC[C@H](N)C(=O)O

This test concerns the target T1, recombinant rat MASP1 active protease (amino acids 302-704, C-terminal His Tag) (rat, UniProt Q8CHN8 302-704).
T1 sequence: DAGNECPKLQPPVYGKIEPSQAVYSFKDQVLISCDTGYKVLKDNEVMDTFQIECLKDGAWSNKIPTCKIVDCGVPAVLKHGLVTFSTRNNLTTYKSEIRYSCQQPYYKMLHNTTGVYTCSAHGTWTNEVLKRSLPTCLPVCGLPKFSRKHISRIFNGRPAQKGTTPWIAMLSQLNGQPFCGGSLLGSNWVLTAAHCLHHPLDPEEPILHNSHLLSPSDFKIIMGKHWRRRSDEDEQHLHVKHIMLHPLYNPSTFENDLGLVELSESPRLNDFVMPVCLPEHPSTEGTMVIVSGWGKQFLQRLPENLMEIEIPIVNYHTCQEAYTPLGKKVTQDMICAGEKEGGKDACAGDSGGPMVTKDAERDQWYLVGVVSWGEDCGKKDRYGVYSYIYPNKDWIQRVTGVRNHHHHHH
The experiment in a line: cell-based or functional assay.

B1: Example 169: (Abu)-IC+SRSLPP-(Chg)-C+IPD-NH2 (peptide)
peptide: [Abu]ICSRSLPP[Chg]CIPD-NH2
modifications: disulfide 3-11; N-terminus assumed
SMILES: CC[C@H](N)C(=O)N[C@H](C(=O)N[C@H]1CSSC[C@@H](C(=O)N[C@H](C(=O)N2CCC[C@H]2C(=O)N[C@@H](CC(=O)O)C(N)=O)[C@@H](C)CC)NC(=O)[C@H](C2CCCCC2)NC(=O)[C@@H]2CCCN2C(=O)[C@@H]2CCCN2C(=O)[C@H](CC(C)C)NC(=O)[C@H](CO)NC(=O)[C@H](CCCNC(=N)N)NC(=O)[C@H](CO)NC1=O)[C@@H](C)CC
On to B1, for which the “rat MASP1 IC50” value turned out to be 370 nM.

B2: Example 205: G-((N-Me)I)-C+SRSLPPIC+IPD-NH2 (HCl salt) (peptide)
peptide: G[NMeI]CSRSLPPICIPD-NH2
modifications: disulfide 3-11; also: HCl salt
On to B2, for which the “rat MASP1 IC50” value is 300 nM.

B3: Example 186: (Orn)-IC+SRS-((tBu)A)-PPIC+I-NH2 (peptide)
peptide: [Orn]ICSRS[tBuAla]PPICI-NH2
modifications: disulfide 3-11; N-terminus assumed
SMILES: CC[C@H](C)[C@H](NC(=O)[C@@H]1CSSC[C@H](NC(=O)[C@@H](NC(=O)[C@@H](N)CCCN)[C@@H](C)CC)C(=O)N[C@@H](CO)C(=O)N[C@@H](CCCNC(=N)N)C(=O)N[C@@H](CO)C(=O)N[C@@H](CC(C)(C)C)C(=O)N2CCC[C@H]2C(=O)N2CCC[C@H]2C(=O)N[C@@H]([C@@H](C)CC)C(=O)N1)C(N)=O
Consider B3, for which the “rat MASP1 IC50” value worked out at 380 nM.

B4: Example 181: FIC+SRS-((tBu)A)-PPI-((N-Me)C)+I-NH2 (peptide)
peptide: FICSRS[tBuAla]PPI[NMeC]I-NH2
modifications: disulfide 3-11; N-terminus assumed
SMILES: CC[C@H](C)[C@H](NC(=O)[C@@H]1CSSC[C@H](NC(=O)[C@@H](NC(=O)[C@@H](N)Cc2ccccc2)[C@@H](C)CC)C(=O)N[C@@H](CO)C(=O)N[C@@H](CCCNC(=N)N)C(=O)N[C@@H](CO)C(=O)N[C@@H](CC(C)(C)C)C(=O)N2CCC[C@H]2C(=O)N2CCC[C@H]2C(=O)N[C@@H]([C@@H](C)CC)C(=O)N1C)C(N)=O
With B4, the “rat MASP1 IC50” value is 130 nM.

B5: Example 175: ((N-Me)A)-IC+SRS-((tBu)A)-PPI-((N-Me)C)+IPD-NH2 (peptide)
peptide: [NMeA]ICSRS[tBuAla]PPI[NMeC]IPD-NH2
modifications: disulfide 3-11; N-terminus assumed
SMILES: CC[C@H](C)[C@H](NC(=O)[C@H](C)NC)C(=O)N[C@H]1CSSC[C@@H](C(=O)N[C@H](C(=O)N2CCC[C@H]2C(=O)N[C@@H](CC(=O)O)C(N)=O)[C@@H](C)CC)N(C)C(=O)[C@H]([C@@H](C)CC)NC(=O)[C@@H]2CCCN2C(=O)[C@@H]2CCCN2C(=O)[C@H](CC(C)(C)C)NC(=O)[C@H](CO)NC(=O)[C@H](CCCNC(=N)N)NC(=O)[C@H](CO)NC1=O
As for B5, the “rat MASP1 IC50” value came out at 28 nM.

B6: Example 154: HIC+SRS-((tBu)A)-PPI-((N-Me)C)+I-NH2 (peptide)
peptide: HICSRS[tBuAla]PPI[NMeC]I-NH2
modifications: disulfide 3-11; N-terminus assumed
SMILES: CC[C@H](C)[C@H](NC(=O)[C@@H]1CSSC[C@H](NC(=O)[C@@H](NC(=O)[C@@H](N)Cc2c[nH]cn2)[C@@H](C)CC)C(=O)N[C@@H](CO)C(=O)N[C@@H](CCCNC(=N)N)C(=O)N[C@@H](CO)C(=O)N[C@@H](CC(C)(C)C)C(=O)N2CCC[C@H]2C(=O)N2CCC[C@H]2C(=O)N[C@@H]([C@@H](C)CC)C(=O)N1C)C(N)=O
For the molecule B6, the “rat MASP1 IC50” value was 72 nM.

B7: Example 182: YIC+SRS-((tBu)A)-PPI-((N-Me)C)+I-NH2 (peptide)
peptide: YICSRS[tBuAla]PPI[NMeC]I-NH2
modifications: disulfide 3-11; N-terminus assumed
SMILES: CC[C@H](C)[C@H](NC(=O)[C@@H]1CSSC[C@H](NC(=O)[C@@H](NC(=O)[C@@H](N)Cc2ccc(O)cc2)[C@@H](C)CC)C(=O)N[C@@H](CO)C(=O)N[C@@H](CCCNC(=N)N)C(=O)N[C@@H](CO)C(=O)N[C@@H](CC(C)(C)C)C(=O)N2CCC[C@H]2C(=O)N2CCC[C@H]2C(=O)N[C@@H]([C@@H](C)CC)C(=O)N1C)C(N)=O
As for B7, the “rat MASP1 IC50” value is 13 nM.
